From PMC2805716, “Critical Structural and Functional Roles for the N-Terminal Insertion Sequence in Surfactant Protein B Analogs” (PLoS ONE, 2010)

T1: Cys-S-MB (Super Mini-B with a cysteine added to its N-terminus, chip-linked) (human)
T1 construct: cysteine added to the N-terminus to link the peptide to the thiol Biacore chip; surfactant protein B (SP-B), human, residues 1-25; numbers count on: the mature protein (79 residues); surfactant protein B (SP-B), human, residues 63-78; Immobilised on the SPR chip; also called chipped S-MB; N-terminal Cys-S-MB
T1 chain: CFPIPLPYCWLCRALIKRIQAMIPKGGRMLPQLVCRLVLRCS

T2: Cys-MB (Mini-B with a cysteine added to its N-terminus, chip-linked) (human)
T2 construct: cysteine added to the N-terminus to link the peptide to the thiol Biacore chip; surfactant protein B (SP-B), human, residues 8-25; numbers count on: the mature protein (79 residues); surfactant protein B (SP-B), human, residues 63-78; Immobilised on the SPR chip; also called chipped MB; N-terminal Cys-MB
T2 chain: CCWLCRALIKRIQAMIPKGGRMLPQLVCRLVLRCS


How the values were obtained:
[1] = tested on: surfactant-deficient animal models; details: ref [34]–[37]; cited from earlier work
From the text: (§1) Previous structural and functional studies with synthetic peptides representing the N- and C-terminal regions of SP-B further support the hypothesis that these charged amphipathic helices participate in surfactant activities. […] The cationic N-terminus of SP-B may here interact with anionic lipids to remove the driving force for lipid squeeze-out from the surface film, [32]. In additional studies, SP-B(1–25 ...

[2] = lipid monolayers containing palmitic acid; ref [31], [32]; cited from earlier work
From the text: as §1

[3] = ESR, ref [30], cited from earlier work
From the text: Although the “10 nsec” MD simulation of dimer S-MB provides a reasonable framework to account for our SDS-PAGE and SPR results (Figs. 8 and 10), it is worthwhile to consider other structural models by which the N-terminal insertion sequence may promote the self-association of S-MB. One possible alternative is that oligomeric S-MB may be due to the N-terminal sequence (residues 1-7) forming β-sheet. The N-terminal SP-B(1–9) (Fig. 2) was earlier proposed to act as a ‘biochemical Velcro®,’ facilitating in vivo either the aggregation of SP-B or the interactions of SP-B with SP-C [50]. In support ...

[4] = target: T1, Cys-S-MB (Super Mini-B with a cysteine …); test: SPR; Biacore 3000; Cys-MB or Cys-S-MB linked to a thiol chip; MB or S-MB at 1 µg peptide/ml in HBS-EP (10 mM Hepes, pH 7.4, 150 mM NaCl, 3 mM EDTA, 0.005% surfactant P20) flowed over at 50 µl/min, 37°C; constants from curve fitting at the one concentration; details: both partners purified
[5] = target: T2, Cys-MB (Mini-B with a cysteine added to …); test: as above; details: both partners purified
[6] = target: the molecule itself; test: SDS-PAGE; 4 µg peptide in 8 µl buffer (50 mM MOPS, 50 mM Tris, pH 7.7, 0.1% SDS, 1 mM EDTA), neither heated nor reduced; 16% acrylamide gel; Coomassie blue and silver staining; molecular weight markers 2.5-16.9 kDa

Molecule | oxygenation and lung compliance [1] | collapse pressure of lipid monolayers [2] | aggregation ([3]; PBS, spin-labeled at Phe-1) | aggregation upon addition of SDS micelles ([3]; SDS micelles added) | Kd [4] | koff [4] | kon [4] | Kd [5] | koff [5] | kon [5] | stoichiometry N [6]
SP-B(1–25): synthetic peptide based on the N-terminal domain of SP-B, residues 1–25 (FPIPLPYCWLCRALIKRIQAMIPKG; Pulmonary surfactant-associated protein B; UniProt P07988 201-225, looked up, fragment) | improved oxygenation and lung compliance | increase the collapse pressure | primarily aggregated in PBS | addition of SDS micelles rapidly dissociated these SP-B(1–25) aggregates |  |  |  |  |  |  | 
FPIPLPYCWLCRALIKRIQAMIPKGGRMLPQLVCRLVLRCS (numbers count on: the mature protein (79 residues); surfactant protein B (SP-B), human, residues 63-78 (C-terminal helix region); the split into the two SP-B stretches follows the stated ranges (1-7 plus 8-25, and 63-78); Oxidised form with intramolecular disulfides Cys-8 to Cys-40 and Cys-11 to Cys-34; also called S-MB; SMB; source: synthetic peptide (Fmoc solid phase, HPLC-purified, …)) [Super Mini-B] |  |  |  |  | 20.1 nM | 0.000901 s⁻¹ | 44700 M⁻¹ s⁻¹ | 52.1 nM | 0.00736 s⁻¹ | 141000 M⁻¹ s⁻¹ | 2
